Target: αvβ3 integrin on rat smooth muscle cells (RSMC) (rat)
Experiment: cell-based or functional assay

| Binder | IC50 of inhibition of VN-induced migration of RSMC (Boyden chamber chemotaxis) | stimulation of RSMC migration (Boyden chamber chemotaxis) |
| --- | --- | --- |
| IQEGAAGRPKDDR [peptide D2A-Ala (D2A with the two glutamic acids of GEEG changed into alanines)] | 0.01 to 0.02 pM | – |
| IQEGEEGRPKDDR [peptide D2A, synthetic peptide of domain 2 of human uPAR (aa130-142)] | – | 3 fold |

Source: patent publication US20080280833A1 (published 2008)
